Laboratory results published in doi:10.1101/2021.03.16.435520 (bioRxiv, 2021).

Target: the molecule itself
Assay: cross-linking

B1: IRE1-KR-R887A, unphosphorylated (domain or fragment)
chain: GSSPSLEQDDGDEETSVVIVGKISFCPKDVLGHGAEGTIVYRGMFDNRDVAVKRILPECFSFADREVQLLRESDEHPNVIRYFCTEKDRQFQYIAIELCAATLQEYVEQKDFAHLGLEPITLLQQTTSGLAHLHSLNIVHRDLKPHNILISMPNAHGKIKAMISDFGLCKKLAVGRHSFSRRSGVPGTEGWIAPEMLSEDCKENPTYTVDIFSAGCVFYYVISEGSHPFGKSLQRQANILLGACSLDCLHPEKHEDVIARELIEKMIAMDPQKRPSAKHVLKHPFFWSLEKQLQFFQDVSDRIEKESLDGPIVKQLERGGRAVVKMDWRENITVPLQTDLAKFRTYKGGSVRDLLRAMRNKKHHYRELPAEVRETLGSLPDDFVCYFTSRFPHLLAHTYRAMELCSHERLFQPYYFHEPPEPQPPVTPDAL
- stoichiometry N: 2
